These results are taken from publication doi:10.1101/2023.09.29.560207 (bioRxiv, 2023).

B1: His-MBP-RGNEF^1–275 (domain or fragment, human, UniProt Q8N1W1 1-275, looked up)
chain: MELSCSEAPLYGQMMIYAKFDKNVYLPEDAEFYFTYDGSHQRHVMIAERIEDNVLQSSVPGHGLQETVTVSVCLCSEGYSPVTMGSGSVTYVDNMACRLARLLVTQANRLTACSHQTLLTPFALTAGALPALDEELVLALTHLELPLEWTVLGSSSLEVSSHRESLLHLAMRWGLAKLSQFFLCLPGGVQALALPNEEGATPLDLALREGHSKLVEDVTNFQGRWSPSFSRVQLSEEASLHYIHSSETLTLTLNHTAEHLLEADIKLFRKYFWDR

The assay “His-MBP-RGNEF^1–275” deals with B1. Put plainly: SPR.
Another assay concerns the target His-GST-TDP-43^wt (human, UniProt Q13148 1-414). Nature of the assay: SPR. In general terms: In SPR one partner is held on a chip, and binding of the other changes the refractive index at the surface.

His-GST-TDP-43^wt, sequence (Q13148 whole entry): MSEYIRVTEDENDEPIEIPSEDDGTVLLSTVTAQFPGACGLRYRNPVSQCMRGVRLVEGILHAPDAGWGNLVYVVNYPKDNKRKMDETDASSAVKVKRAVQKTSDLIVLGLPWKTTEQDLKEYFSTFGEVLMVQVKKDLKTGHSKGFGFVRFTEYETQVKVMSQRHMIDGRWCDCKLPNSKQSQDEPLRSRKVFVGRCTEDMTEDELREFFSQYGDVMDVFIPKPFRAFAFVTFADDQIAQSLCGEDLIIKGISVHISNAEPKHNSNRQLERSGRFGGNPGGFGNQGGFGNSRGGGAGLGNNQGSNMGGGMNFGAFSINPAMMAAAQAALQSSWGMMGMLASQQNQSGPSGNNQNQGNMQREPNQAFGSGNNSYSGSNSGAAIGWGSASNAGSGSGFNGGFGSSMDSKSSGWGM

As usually defined, the Kd is a measure of binding affinity in units of concentration. A higher Kd goes with a looser complex. In the case of “His-TDP-43^1–296 (from UniProt Q13148 1-261) (domain or fragment)”, the Kd with His-MBP-RGNEF^1–275 turned out to be 4110 nM.
The molecule B1 had a Kd with His-GST-TDP-43^wt of 1780 nM.

B2: His-RRM-1 (domain or fragment, human, UniProt Q13148 101-191, looked up)
chain: QKTSDLIVLGLPWKTTEQDLKEYFSTFGEVLMVQVKKDLKTGHSKGFGFVRFTEYETQVKVMSQRHMIDGRWCDCKLPNSKQSQDEPLRSR
B2: the binding result in the assay with His-MBP-RGNEF^1–275 was “binds”.
